B1: anti-Müllerian hormone growth factor (AMH GF), the mature C-terminal domain (ligand, human, UniProt P03971 452-560, looked up)
chain: SAGATAADGPCALRELSVDLRAERSVLIPETYQANNCQGVCGWPQSDRNPRYGNHVVLLLKMQVRGAALARPPCCVPTAYAGKLLISLSEERISAHHVPNMVATECGCR
notes: C-terminal growth factor (GF) domain of human AMH, the mature product of cleavage at the monobasic site (R451); Disulfide-linked homodimer; also called mature GF; C-terminal GF; source: in the prodomain/GF rows it is the GF part of c-AMH (CHO cells, plasmin cleaved)
B2: mature BMP-7 growth factor (unmodified mature domain) (ligand, human, UniProt P18075 293-431, looked up)
chain: STGSKQRSQNRSKTPKNQEALRMANVAENSSSDQRQACKKHELYVSFRDLGWQDWIIAPEGYAAYYCEGECAFPLNSYMNATNHAIVQTLVHFINPETVPKPCCAPTQLNAISVLYFDDSSNVILKKYRNMVVRACGCH
notes: mature growth factor (GF) domain of human BMP-7; also called BMP-7 GF; source: CHO cells; mature BMP-7 eluted from Zn-chelating Sepharose with 6 M urea

Columns and labels:
[1] = target: T1, AMHR2-Fc/Fc, heterodimer of one AMHR2-Fc chain (extracellular domain of human AMHR2 fused to human IgG1 Fc) … (human, UniProt Q16671 18-149; P01857 104-330 = IgG part); assay: ELISA; AMHR2-Fc/Fc (0.75 ug/ml) captured on goat antihuman Fc Ab coated on the plate; c-AMH or GF serially diluted, 2 to 4 h; bound AMH detected with biotinylated mAb-C1 (GF) or mAb-N1 (prodomain) and SA-HRP; data fit to the quadratic equation for a reversible association reaction; details: both partners purified
T1 construct: extracellular domain of human anti-Müllerian hormone receptor type-2 (AMHR2); Fc portion of human IgG1 (Ig gamma-1 chain constant region), the Fc-only chain; Functionally monovalent for AMHR2; also called soluble receptor; soluble AMHR2; source: human embryonic kidney 293E cells, purified from conditioned medium (Protein A Sepharose, size-exclusion chromatography); copies: 1 + 1

[2] = target: T2, BMP-7 prodomain biotinylated through amines (human, UniProt P18075 30-292, biotin through amines (EZ-Link NHS-PEG4-Biotin)); assay: ELISA; BMP-7 complexes with biotinylated prodomain or biotinylated GF captured on anti-BMP-7 GF mAb; bound prodomain or GF detected with SA-HRP (biotinylated prodomain preparation also added as preformed complex with SA-HRP); 0.1% Tween-20 in all incubations; Kd from modeling of the concentration dependence; details: both partners purified
T2 construct: prodomain of human bone morphogenetic protein 7 (BMP-7); 90% pure, with about 10% unprocessed BMP-7; also called biotinylated prodomain; source: CHO cells; soluble BMP-7 biotinylated, prodomain eluted from Zn-chelating Sepharose with 50 mM imidazole
T2 sequence (P18075 30-292): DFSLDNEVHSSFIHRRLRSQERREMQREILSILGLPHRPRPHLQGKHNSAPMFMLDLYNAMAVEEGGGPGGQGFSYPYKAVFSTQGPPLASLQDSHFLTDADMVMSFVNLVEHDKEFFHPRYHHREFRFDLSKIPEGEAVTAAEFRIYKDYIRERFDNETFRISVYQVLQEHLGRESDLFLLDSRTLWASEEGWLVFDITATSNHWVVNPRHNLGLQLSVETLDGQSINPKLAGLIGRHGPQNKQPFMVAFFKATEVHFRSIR

Binder	Kd [1] [nM]	Kd [2] [nM]
B1	0.03	
B2		0.1 to 0.2

Source: article PMC8801479, “The anti-Müllerian hormone prodomain is displaced from the hormone/prodomain complex upon bivalent binding to the hormone receptor” (The Journal of Biological Chemistry, 2021)
